Assay results from patent publication US20240317847A1 (Bayer, published 2024).
Substitutions are numbered along the chain they refer to. “And” between values parts separate entries of the source, which are not always exact repeats. Identical values can stand only once.

T1: human IL-11 (human, UniProt P20809 22-199)
T1 sequence: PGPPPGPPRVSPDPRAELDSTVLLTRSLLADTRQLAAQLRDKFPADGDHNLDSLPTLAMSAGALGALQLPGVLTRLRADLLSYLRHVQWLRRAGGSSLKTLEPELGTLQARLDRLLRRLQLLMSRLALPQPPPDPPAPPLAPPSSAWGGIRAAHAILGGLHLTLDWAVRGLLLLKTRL

T2: murine IL-11 (mouse, UniProt P47873 22-199)
T2 sequence: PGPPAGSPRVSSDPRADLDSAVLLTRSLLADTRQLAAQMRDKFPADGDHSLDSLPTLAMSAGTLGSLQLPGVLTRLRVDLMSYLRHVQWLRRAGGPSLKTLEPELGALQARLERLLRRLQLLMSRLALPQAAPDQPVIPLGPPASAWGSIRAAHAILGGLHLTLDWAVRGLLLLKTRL

T3: human IL-11 (human, UniProt P20809 22-199)
T3 sequence: T1 sequence

T4: murine IL-11 (mouse, UniProt P47873 22-199)
T4 sequence: T2 sequence

B1: TPP-31295 (antibody, IgG4, V domains shown)
VH: EVQLLESGGGLVQPGGSLRLSCAASGFTFSHYDMNWLRQAPGKGLEWVGVISYDGSNKYYADFVKGRFTISRDNSKNTLYLQMNSLRAEDTAVYYCARTPGSHFDYWGQGTLVTVSS
VL: QSVLTQPPSASGTPGQRVTISCSGSSSNIGNNAVNWYQQLPGTAPKLLIYYDDLLPSGVPDRFSGSKSGTSASLAISGLRSEDEADYYCSAWDDSLNGVVFGGGTKLTVL
B2: TPP-31281 (antibody, IgG4, V domains shown)
VH: B1 VH with Y59F
VL: B1 VL with D52N
B3: TPP-31300 (antibody, IgG4, V domains shown)
VH: B1 VH with D54E, Y59F
VL: B1 VL
B4: TPP-31307 (antibody, IgG4, V domains shown)
VH: B1 VH with G55A, Y59F
VL: B1 VL with G98A
B5: TPP-31291 (antibody, IgG4, V domains shown)
VH: B1 VH with D33G, Y59F
VL: B1 VL
B6: TPP-31306 (antibody, IgG4, V domains shown)
VH: B1 VH with G55A, Y59F
VL: B1 VL with N97S
B7: TPP-31309 (antibody, IgG4, V domains shown)
VH: B1 VH with G55S, Y59F
VL: B1 VL with N97Q
B8: TPP-31304 (antibody, IgG4, V domains shown)
VH: B1 VH with G55A, Y59F
VL: B1 VL
B9: TPP-18087 (antibody, mouse IgG1, V domains shown)
VH: B1 VH with Y59F
VL: QSVLTQPPSASGTPGQRVTISCSGSSSNIGNNAVNWYQQLPGTAPKLLIYYDDLLPSGVPDRFSGSKSGTSASLAISGLRSEDEADYYCSAWDDSLNGVVFGGGTKLTVLG
B10: TPP-31280 (antibody, IgG4, V domains shown)
VH: B1 VH with Y59F
VL: B1 VL with Y51R
B11: TPP-31279 (antibody, IgG4, V domains shown)
VH: B1 VH with Y59F
VL: B1 VL with N35Y
B12: TPP-31301 (antibody, IgG4, V domains shown)
VH: B1 VH with D54E, Y59F
VL: B1 VL with N97Q
B13: TPP-31283 (antibody, IgG4, V domains shown)
VH: B1 VH with Y59F
VL: B1 VL with L54Q
B14: TPP-31308 (antibody, IgG4, V domains shown)
VH: B1 VH with G55S, Y59F
VL: B1 VL
B15: TPP-31310 (antibody, IgG4, V domains shown)
VH: B1 VH with G55S, Y59F
VL: B1 VL with N97S
B16: TPP-31282 (antibody, IgG4, V domains shown)
VH: B1 VH with Y59F
VL: B1 VL with D53N
B17: TPP-31299 (antibody, IgG4, V domains shown)
VH: B1 VH with Y59F
VL: B1 VL with G98A
B18: TPP-31305 (antibody, IgG4, V domains shown)
VH: B1 VH with G55A, Y59F
VL: B1 VL with N97Q
B19: TPP-31290 (antibody, IgG4, V domains shown)
VH: B1 VH with H31S, Y59F
VL: B1 VL
B20: TPP-31303 (antibody, IgG4, V domains shown)
VH: B1 VH with D54E, Y59F
VL: B1 VL with G98A
B21: TPP-31297 (antibody, IgG4, V domains shown)
VH: B1 VH with Y59F
VL: B1 VL with N97Q
B22: TPP-31302 (antibody, IgG4, V domains shown)
VH: B1 VH with D54E, Y59F
VL: B1 VL with N97S
B23: TPP-31311 (antibody, IgG4, V domains shown)
VH: B1 VH with G55S, Y59F
VL: B1 VL with G98A
B24: TPP-31298 (antibody, IgG4, V domains shown)
VH: B1 VH with Y59F
VL: B1 VL with N97S
B25: TPP-26290 (antibody, V domains shown)
VH: EVQLLESGGGLVQPGGSLRLSCAASGFTFSSYGMHWVRQAPGKGLEWVSVISYDGSYKYYADSVKGRFTISRDNSKNTLYLQMNSLRAEDTAVYYCAAGVPDYWGQGTLVTVSS
VL: QSVLTQPPSASGTPGQRVTISCTGSSSNIGAGMDVHWYQQLPGTAPKLLIYSNNERPSGVPDRFSGSKSGTSASLAISGLRSEDEADYYCAAWDDSLNGPVFGGGTKLTVL
B26: TPP-26301 (antibody, V domains shown)
VH: B25 VH
VL: B25 VL with G32D, M33Y
B27: TPP-26312 (antibody, V domains shown)
VH: B25 VH
VL: B25 VL with M33L

Each binder was assayed against T1, human IL-11 (assay: cell-based or functional assay).

IC50, RGA 1 | IC50, RGA 2 | Binder
364 nM | 92 nM | B1
> 500 nM |  | B2
1.09 nM | 4.75 nM | B3
> 500 nM | 126 nM | B4
> 500 nM |  | B5
126 nM | 23 nM | B6
261 nM | 122 nM | B7
104 nM | 35 nM | B8
111 nM and 93 nM | 12 nM | B9
> 500 nM |  | B10
> 500 nM | > 500 nM | B11
18.9 nM | 9.71 nM | B12
> 500 nM | 200 nM | B13
> 500 nM | > 500 nM | B14
> 500 nM | > 500 nM | B15
345 nM | 287 nM | B16
238 nM | 114 nM | B17
182 nM | 47 nM | B18
> 500 nM |  | B19
9.08 nM | 11 nM | B20
181 nM | 22 nM | B21
14.5 nM | 7.13 nM | B22
> 500 nM | 34 nM | B23
135 nM | 33 nM | B24

What follows are binders tested against T2, murine IL-11 (assay: cell-based or functional assay).

IC50, RGA 1 | IC50, RGA 2 | Binder
60 nM | 37 nM | B1
> 500 nM |  | B2
3.42 nM | 0.81 nM | B3
45 nM | 37 nM | B4
> 500 nM |  | B5
57 nM | 60 nM | B6
108 nM | 68 nM | B7
42 nM | 21 nM | B8
204 nM and 231 nM | 21 nM | B9
> 500 nM |  | B10
196 nM | > 500 nM | B11
4.43 nM | 1.77 nM | B12
247 nM | 118 nM | B13
63 nM | 170 nM | B14
144 nM | 75 nM | B15
70 nM | 28 nM | B16
44 nM | 14 nM | B17
30 nM | 29 nM | B18
> 500 nM |  | B19
4.38 nM | 2.49 nM | B20
37 nM | 7.93 nM | B21
3.49 nM | 1.17 nM | B22
76 nM | 127 nM | B23
21 nM | 6.22 nM | B24

What follows are binders tested against T3, human IL-11 (assay: cell-based or functional assay).

RGA Efficacy (%) | RGA IC50 | Binder
75.9% | 4.7 nM | B25
76.1% | 2.6 nM | B26
68.6% | 3.8 nM | B27

Each binder was assayed against T4, murine IL-11 (assay: cell-based or functional assay).

RGA Efficacy (%) | RGA IC50 | Binder
95.1% | 0.97 nM | B25
91.8% | 1.5 nM | B26
87.3% | 1.2 nM | B27
